Test in all cases: fluorescence polarisation
(Polarisation of emitted light reports the rotation of a fluorescent probe.)

The target of assay [1] is FITC-conjugated CD3ε peptide (…).
The target in assay [2] is FITC-conjugated PAK1 peptide (…).
The target of assay [3] is NCK2 full length recombinant protein (WT, tag-free) (mouse, UniProt O55033 1-380).

Where no end group is shown, it is not given here.

For “NCK2 2|3|1 full length recombinant protein (SH3-shuffled, tag-free) (from UniProt O55033)”, the fold decrease of binding against WT NCK2 in assay [1] stood at 2 fold.

In assay [2], “NCK2 3|1|2 full length recombinant protein (SH3-shuffled, tag-free) (from UniProt O55033)” returned a fold decrease of binding against WT NCK2 of 2 fold.

As to “NCK2 3|2|1 full length recombinant protein (SH3-shuffled, tag-free) (from UniProt O55033)”, in assay [1], the fold decrease of binding against WT NCK2 was 2 fold.

DIQDKPPAPPMRNTST (also: FITC-conjugated, site not given here) [FITC-conjugated PAK1 peptide (DIQDKPPAPPMRNTST)]: the binding result in assay [3] is reported as “binds”.

In the case of RGQNKERPPPVPNPDY (also: FITC-conjugated, site not given here) [FITC-conjugated CD3ε peptide (RGQNKERPPPVPNPDY)], the binding result in assay [3] is given as “binds”.

For the origin of these results see publication doi:10.1101/2020.05.18.103002 (bioRxiv, 2020).
